Measurements: patent publication US20050170442A1

Target: Biotin-labeled fluorescent peptide …(S*)PDK-(5-FAM)
Experiment: cell-based or functional assay

Substance	EC50 of enzyme titration (TR-FRET ratio, 400 nM substrate, 200 µM ATP)
GSK3α, rHuman (from UniProt P49840 1-483) (enzyme)	0.025 µg/mL
GSK3β, rHuman (from UniProt P49841 1-420) (enzyme)	0.245 µg/mL
